This is an account of results in PMC5641545, “Structure and Interactions of the TPR Domain of Sgt2 with Yeast Chaperones and Ybr137wp” (Frontiers in Molecular Biosciences, 2017).

The target of assay [1] is T1, Sgt2_TPR (residues 93–229) (Saccharomyces cerevisiae, UniProt Q12118).
T1 construct: were added to Sgt2_TPR (residues 93–229) at 50 μM in the reaction cell; thioredoxin A (N, cleaved yes); hexahistidine tag (N, cleaved yes); made in house; host or cells: E. coli BL21 (DE3)
T1 sequence (Q12118 93-229): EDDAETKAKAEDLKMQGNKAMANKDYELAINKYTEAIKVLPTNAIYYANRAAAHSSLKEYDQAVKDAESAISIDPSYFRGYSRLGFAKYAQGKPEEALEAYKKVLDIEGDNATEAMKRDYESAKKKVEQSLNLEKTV
The assay can be described thus: ITC binding of peptides to Sgt2_TPR (93–229). Details: species or system S. cerevisiae. The settings on record: 25°C, pH 6.0, from ΔG = −RT·lnKb and ΔG = ΔH − TΔS.

Assay [2] concerns the target Ybr137wp (Saccharomyces cerevisiae) (UniProt P38276). Kind of assay: ITC. The settings on record: cited from earlier work.
The next assay has as its system TPR domains. The settings on record: ref Scheufler et al., 2000; cited from earlier work. The source says: The orientation of Hsp peptides in TPR structures varies between proteins. The conserved clamp mode of interactions is consistent, but there are some differences observed for the N-terminal parts of the peptides, which is not surprising given that the carboxylate clamp is the fixed point of attachment. The PTVEEVD peptide adopts an extended conformation within the Sgt2_TPR groove similar to that observed in the structure of the HOP TPR1/GPTIEEVD complex (Scheufler et al., [2000]). In contrast, structures of GPTIEEVD/Chip TPR [PDB: 3Q49 (Wang L. et al., [2011]) and PDB: 4KBQ Zhang et al., [2005 ...

The target of the next assay is T2, Sgt2_TPR (93–229) (S. cerevisiae, UniProt Q12118 93-229).
T2 construct: Small glutamine-rich tetratricopeptide repeat-containing protein 2 (Sgt2), S. cerevisiae, TPR domain, residues 93-229; 15N-labelled for the NMR titrations; Cloned from synthetic cDNA into the BamHI/XhoI sites of a modified pET28; also called TPR domain of Sgt2; longer construct of Sgt2_TPR; not shown: thioredoxin A, N-terminal, cleaved; His6, N-terminal, cleaved
T2 sequence (looked up): T1 sequence (Q12118 93-229)
The assay can be described thus: ITC; 20 injections of 2 uL of 500 uM peptide into 50 uM Sgt2_TPR (93-229) in the cell; 10 mM potassium phosphate pH 6.0, 100 mM NaCl, 250 uM TCEP, 25°C. Conditions: both partners purified.

Chain of Ybr137wp (Saccharomyces cerevisiae) (P38276 whole entry, the tested form may be a part): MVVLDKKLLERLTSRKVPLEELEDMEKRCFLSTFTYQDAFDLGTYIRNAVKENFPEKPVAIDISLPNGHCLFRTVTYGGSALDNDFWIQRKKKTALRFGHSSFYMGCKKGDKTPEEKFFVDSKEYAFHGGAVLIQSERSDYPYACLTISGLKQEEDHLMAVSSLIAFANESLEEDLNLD

With “MEEVD [peptide corresponding to C-terminal of Hsp82; residues 705–709]”, the “ΔS (reaction entropy) by ITC” value in assay [1] is on record as 10.9 cal/mol·deg.
As usually defined, the Kd is a measure of binding affinity in units of concentration. Take Sgt2 TPR (from UniProt Q12118): the dissociation constant (Kd) in assay [2] was 1380 nM.
On to EEVD, for which the “Fold reduction of affinity on trimming the peptide sequence to EEVD only” value in the assay on TPR domains is “at least 10 times”.

B1: SLEEDLNLD peptide (C-terminus of Ybr137wp) (peptide)
peptide: SLEEDLNLD
notes: Ybr137wp, yeast, C-terminal residues 171-179; also called Ybr137wp-derived peptide; source: synthetic peptide, bought: Alpha BioScience (Birmingham, UK)
In the assay with Sgt2_TPR (93–229), B1 yielded a Kd of 1530 ± 50 nM and a dH of -7.07 ± 0.99 kcal/mol.

B2: MEEVD peptide (C-terminus of Hsp82) (peptide)
peptide: MEEVD
notes: Hsp82 (yeast Hsp90), C-terminal residues 705-709; the abstract and discussion call the parent Hsc82; also called C-terminal fragment of Hsp82; Hsc82 C-terminal peptide; source: synthetic peptide, bought: Alpha BioScience (Birmingham, UK)
For the molecule B2, in the assay with Sgt2_TPR (93–229), the Kd was determined as 2950 ± 310 nM and the dH was -4.51 ± 0.03 kcal/mol.

B3: PTVEEVD peptide (C-terminus of Ssa1) (peptide)
peptide: PTVEEVD
notes: Heat shock protein Ssa1 (yeast Hsp70), last seven amino acids; printed as residues 634-640; also called C-terminal peptide of Ssa1; Ssa1 derived PTVEEVD peptide; source: synthetic peptide, bought: Alpha BioScience (Birmingham, UK)
On to B3, for which, in the assay with Sgt2_TPR (93–229), the Kd worked out at 9040 ± 50 nM and the dH was -6.72 ± 0.07 kcal/mol.
